Here are results for one substance from PMC3694950.

The assay deals with mitochondrial large-conductance Ca2+-regulated potassium channel (mitoBKCa channel) (human (endogenous in U-87 MG)) (UniProt Q12791).
Sequence of UniProt Q12791 (Q12791 whole entry, looked up): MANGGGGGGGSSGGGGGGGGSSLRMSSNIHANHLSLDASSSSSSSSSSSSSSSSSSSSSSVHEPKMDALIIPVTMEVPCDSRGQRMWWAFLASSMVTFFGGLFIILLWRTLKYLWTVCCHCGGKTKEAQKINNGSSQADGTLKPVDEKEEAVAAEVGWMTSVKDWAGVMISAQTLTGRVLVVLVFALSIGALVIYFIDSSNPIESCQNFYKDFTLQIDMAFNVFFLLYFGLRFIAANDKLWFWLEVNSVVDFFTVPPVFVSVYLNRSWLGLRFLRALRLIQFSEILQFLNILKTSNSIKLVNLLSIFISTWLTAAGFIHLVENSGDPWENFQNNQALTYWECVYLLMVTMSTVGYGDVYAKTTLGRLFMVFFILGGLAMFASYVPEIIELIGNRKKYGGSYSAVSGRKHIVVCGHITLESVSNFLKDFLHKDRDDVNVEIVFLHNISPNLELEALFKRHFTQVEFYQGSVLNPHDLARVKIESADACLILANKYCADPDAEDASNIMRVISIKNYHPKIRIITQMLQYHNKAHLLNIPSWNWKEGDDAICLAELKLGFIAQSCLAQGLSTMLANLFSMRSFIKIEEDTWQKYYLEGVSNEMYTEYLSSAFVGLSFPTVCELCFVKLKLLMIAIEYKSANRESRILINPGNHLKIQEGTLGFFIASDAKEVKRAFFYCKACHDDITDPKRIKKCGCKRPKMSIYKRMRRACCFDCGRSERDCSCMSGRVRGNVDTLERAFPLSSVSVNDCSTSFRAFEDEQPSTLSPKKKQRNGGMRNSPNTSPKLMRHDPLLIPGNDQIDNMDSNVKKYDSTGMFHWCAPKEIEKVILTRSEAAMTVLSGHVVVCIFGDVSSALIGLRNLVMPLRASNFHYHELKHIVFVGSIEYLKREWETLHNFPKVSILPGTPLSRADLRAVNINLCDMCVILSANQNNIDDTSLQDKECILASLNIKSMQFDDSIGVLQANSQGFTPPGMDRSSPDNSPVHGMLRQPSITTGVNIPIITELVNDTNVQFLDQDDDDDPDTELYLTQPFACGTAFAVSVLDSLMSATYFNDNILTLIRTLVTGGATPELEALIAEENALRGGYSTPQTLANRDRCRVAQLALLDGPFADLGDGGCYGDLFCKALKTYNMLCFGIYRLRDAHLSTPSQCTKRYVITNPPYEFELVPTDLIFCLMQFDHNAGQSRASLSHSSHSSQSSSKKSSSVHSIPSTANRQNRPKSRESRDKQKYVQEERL

“iberiotoxin (from UniProt P24663 1-37) (peptide)”: the open probability (Po) of the mitoBKCa channel in patch-clamped mitoplasts (inside-out) after 100 nM iberiotoxin; control Po 0.95 was determined as 0.15 Po.
